Measurements taken from patent US12624112 (MABWELL SHANGHAI BIOSCIENCE, dated 2026).
Changes are numbered by the printed parent chain. Read-outs that look alike come from different tables or passages of the source.

T1: Human ST2-his (human, UniProt Q01638-2 19-328, limits assumed)
T1 construct: Expressed in CHO-K1; The printed range starts at Met1; also called human ST2 fused with a 6-histidine tag at the C-terminus
T1 sequence: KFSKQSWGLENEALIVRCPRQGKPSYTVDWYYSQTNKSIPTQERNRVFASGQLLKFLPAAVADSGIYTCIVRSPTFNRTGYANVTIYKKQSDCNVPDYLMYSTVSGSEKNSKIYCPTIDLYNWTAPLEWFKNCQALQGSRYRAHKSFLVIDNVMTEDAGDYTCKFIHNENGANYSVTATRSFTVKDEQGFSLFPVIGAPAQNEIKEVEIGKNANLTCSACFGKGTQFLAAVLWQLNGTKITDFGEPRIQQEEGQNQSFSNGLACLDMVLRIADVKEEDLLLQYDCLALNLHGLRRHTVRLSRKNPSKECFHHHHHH

T2: ST2 on the effector cells (KU812, KU812/NF-κB-1#, HUVEC, HMC-1) (human, UniProt Q01638 19-556)
T2 sequence (looked up): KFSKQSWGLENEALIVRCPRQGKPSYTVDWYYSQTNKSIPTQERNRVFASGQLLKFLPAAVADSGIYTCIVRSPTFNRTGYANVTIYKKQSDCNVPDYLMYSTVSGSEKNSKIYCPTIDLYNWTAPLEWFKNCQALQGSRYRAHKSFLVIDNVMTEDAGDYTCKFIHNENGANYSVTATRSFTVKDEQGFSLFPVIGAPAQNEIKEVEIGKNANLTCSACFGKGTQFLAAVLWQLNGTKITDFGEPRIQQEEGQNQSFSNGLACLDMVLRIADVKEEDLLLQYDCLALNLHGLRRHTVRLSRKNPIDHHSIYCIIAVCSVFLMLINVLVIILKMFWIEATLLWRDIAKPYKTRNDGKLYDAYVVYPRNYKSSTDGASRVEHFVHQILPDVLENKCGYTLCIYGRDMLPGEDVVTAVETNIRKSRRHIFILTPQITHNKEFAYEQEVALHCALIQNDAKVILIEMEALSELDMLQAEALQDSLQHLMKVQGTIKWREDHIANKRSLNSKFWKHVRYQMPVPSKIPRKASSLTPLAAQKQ

B1: 5888-379-H2L2 (antibody, human IgG4 S228P, kappa, V domains shown)
VH: QVQLVQSGAEVKKPGASVKVSCKASGYTFINYGMNWVRQAPGQRLEWMGWINTYIGEPTYGDNFKGRVTITRDTSASTAYMELSSLRSEDTAVYYCAREGDAFAYWGQGTLVTVSS
VL: DIVMTQSPDSLAVSLGERATINCKSSQSLLYSGNQNNYLAWYQQKPGQPPKLLIYGASTRESGVPDRFSGSGSGTDFTLTISSLQAEDVAVYYCQNDHSYPYTFGGGTKVEIKR
notes: Humanized antibody
B2: 5888-153-H2L0 (antibody, human IgG4 S228P, kappa, V domains shown)
VH: QVQLVQSGAEVKKPGASVKVSCKASGYTFTDYELHWVRQAPGQGLEWMGTIDPETGDTVYNQKFKARVTMTADKSTSTAYMELSSLRSEDTAVYYCTRAFYNDYDEGFAYWGQGTLVTVSS
VL: EIVLTQSPATLSLSPGERATLSCSVSSSVSYMHWYQQKPGQAPRLLIYDTSKLASGIPARFSGSGSGTDFTLTISSLEPEDFAVYYCQQWNSSPLTFGGGTKVEIKR
B3: 5888-153-H2L1 (antibody, human IgG4 S228P, kappa, V domains shown)
VH: B2 VH
VL: B2 VL with L4M, L45R, F70Y, F82A
B4: 5888-153-H3L1 (antibody, human IgG4 S228P, kappa, V domains shown)
VH: B2 VH with E106D, G107A
VL: B2 VL with L4M, L45R, F70Y, F82A
notes: Humanized antibody
B5: 5888-153-H3L2 (antibody, human IgG4 S228P, kappa, V domains shown)
VH: B2 VH with E106D, G107A
VL: B2 VL with L4M, L45R, F70Y, F82A, S92T
notes: Humanized antibody
B6: 5888-153-H0L1 (antibody, human IgG4 S228P, kappa, V domains shown)
VH: B2 VH with A72R, K74T, A79V, T97A, E106D
VL: B2 VL with L4M, L45R, F70Y, F82A
notes: Humanized antibody

Key:
Human ST2-fc (human) [1] = biological target: Human ST2-fc (human) (UniProt Q01638); assay: competition ELISA, coated ST2-fc, competitor IL33-his
Human ST2-fc (human) [2] = biological target: Human ST2-fc (human) (UniProt Q01638); assay: competition ELISA: human ST2-fc coated, antibody titrated in a mixture with human IL33-his (blocked ligand), bound IL33-his detected with an anti-His secondary antibody, OD450-OD650 [continued), 9-5]
Human ST2-fc (human) [3] = biological target: Human ST2-fc (human) (UniProt Q01638); assay: competition ELISA: human ST2-fc coated, antibody titrated in a mixture with human IL33-his (blocked ligand), bound IL33-his detected with an anti-His secondary antibody, OD450-OD650 [continued), 9-7]
Human ST2-his [4] = biological target: T1, Human ST2-his; assay: SPR Biacore X100, ratio of kd at pH 5.5 to kd at pH 7.4
Experimental: (§1) The experiment on the interaction between the anti-human ST2 antibodies and human ST2-his was performed using Biacore X100.
(§2) Each anti-human ST2 antibody was diluted to 2 µg/mL and captured on the surface of a protein A chip for a capture time of 60 s. Following the antibody capture, a solution of human ST2-his (2-fold gradient dilution from a starting concentration of 20 nM, to obtain 6 concentrations in total) was injected. Association was monitored for 180 s and dissociation was monitored for 700 s, and the sensor surface was regenerated by injecting a solution of glycine at pH 2.0. Kinetic data were analyzed using a simple 1:1 binding model.

Human ST2-his [5] = biological target: T1, Human ST2-his; assay: SPR Biacore X100, antibody captured on protein A chip, human ST2-his injected, pH 7.4
Summary of the method: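 Antibody (2 µg/mL) captured 60 s on protein A; human ST2-his injected at six 2-fold dilutions from 20 nM, association 180 s, dissociation 700 s. Kinetics fitted to 1:1 binding model; glycine pH 2.0 regeneration.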

Human ST2-his [6] = biological target: T1, Human ST2-his; assay: SPR Biacore X100, antibody captured on protein A chip, human ST2-his injected, dissociation at pH 5.5
Experimental: as §1, §2

[7] = biological target: T2, ST2 on the effector cells (KU812, …); assay: cell-based or functional assay
Human ST2-fc (human) [8] = biological target: Human ST2-fc (human) (UniProt Q01638); assay: competition ELISA: human ST2-fc coated, antibody titrated in a mixture with human IL33-his (blocked ligand), bound IL33-his detected with an anti-His secondary antibody, OD450-OD650 [continued), 9-4]
[9] = biological target: T2, ST2 on the effector cells (KU812, …); assay: cell-based or functional assay; remark: listed apart in the source
[10] = biological target: T2, ST2 on the effector cells (KU812, …); assay: cell-based or functional assay; remark: listed apart in the source
Human ST2-fc (human) [11] = biological target: Human ST2-fc (human) (UniProt Q01638); assay: competition ELISA, coated ST2-fc, competitor IL33-his; remark: listed apart in the source
[12] = biological target: T2, ST2 on the effector cells (KU812, …); assay: cell-based or functional assay; remark: listed apart in the source
[13] = biological target: T2, ST2 on the effector cells (KU812, …); assay: cell-based or functional assay; remark: listed apart in the source
[14] = biological target: T2, ST2 on the effector cells (KU812, …); assay: cell-based or functional assay; remark: listed apart in the source

| Molecule | kd ratio of pH 5.5/pH 7.4 (Human ST2-his [4]) | Kd (Human ST2-his [5]) | koff (Human ST2-his [5]) | kon (Human ST2-his [5]) | Kd (Human ST2-his [6]) | koff (Human ST2-his [6]) | kon (Human ST2-his [6]) | IC50, inhibition of KU812-IL5 production promoted by IL-33 (human IL33-his) [7] | Maximum inhibition rate, KU812-IL5 production by IL-33 [7] | Relative activity compared with CNTO7160, KU812-IL5 production by IL-33 [7] | IC50, inhibition of HMC-1 IL8 production promoted by IL33 [9] | Maximum inhibition rate, HMC-1 IL8 production by IL33 [9] | Relative activity, HMC-1 IL8 production by IL33 [9] | IC50, inhibition of activation of KU812-NF-κB reporter gene by IL33 [10] | Maximum inhibition rate, KU812-NF-κB reporter gene [10] | Relative activity compared with CNTO7160, KU812-NF-κB reporter gene [10] | IC50 (Human ST2-fc (human) [11]) | Maximum inhibition rate (Human ST2-fc (human) [11]) | Relative activity compared with CNTO7160 (Human ST2-fc (human) [11]) | IC50, inhibition of KU812-IL5 production promoted by reduced IL33 [12] | other results |
| --- | --- | --- | --- | --- | --- | --- | --- | --- | --- | --- | --- | --- | --- | --- | --- | --- | --- | --- | --- | --- | --- |
| Control antibody CNTO7160 |  |  |  |  |  |  |  |  |  |  |  |  |  |  |  |  |  |  |  |  | Maximum inhibition rate (Human ST2-fc (human) [1]): 92.5%; IC50 (read off the curve) (Human ST2-fc (human) [2]): 1 µg/mL; IC50 (read off the curve) (Human ST2-fc (human) [3]): 0.9 µg/mL |
| B1 | 38.4 | 515 pM | 0.000702 s⁻¹ | 1.36e+06 M⁻¹ s⁻¹ | 2670 pM | 0.0269 s⁻¹ | 1.01e+07 M⁻¹ s⁻¹ | 0.0948 µg/mL | 97.9% | 107% |  |  |  |  |  |  |  |  |  |  | IC50 (Human ST2-fc (human) [1]): 0.402 µg/mL; Maximum inhibition rate (Human ST2-fc (human) [1]): 86%; Relative activity compared with CNTO7160 (Human ST2-fc (human) [1]): 219% |
| B2 |  |  |  |  |  |  |  |  |  |  |  |  |  |  |  |  |  |  |  |  | IC50 (read off the curve) (Human ST2-fc (human) [8]): 3 µg/mL |
| B3 |  |  |  |  |  |  |  |  |  |  |  |  |  |  |  |  |  |  |  |  | IC50 (read off the curve) (Human ST2-fc (human) [8]): 2 µg/mL |
| B4 | 1.57 | 97 pM | 0.000148 s⁻¹ | 1.53e+06 M⁻¹ s⁻¹ | 122 pM | 0.000232 s⁻¹ | 1.9e+06 M⁻¹ s⁻¹ | 0.00815 µg/mL | 97% | 742% | 0.0472 µg/mL | 86.8% | 213% | 0.0394 µg/mL | 86.1% | 508% | 0.553 µg/mL | 93.7% | 228% | 0.265 µg/mL | Maximum inhibition rate, KU812-IL5 production by reduced IL33 [12]: 86.9%; Relative activity, KU812-IL5 production by reduced IL33 [12]: 554%; IC50, inhibition of HUVEC-IL6 production promoted by IL33 [13]: 1.64 µg/mL; Maximum inhibition rate, HUVEC-IL6 production by IL33 [13]: 93%; Relative activity, HUVEC-IL6 production by IL33 [13]: 167%; IC50, inhibition of KU812-IL5 production promoted by oxidized IL33 [14]: 0.0136 µg/mL; Maximum inhibition rate, KU812-IL5 production by oxidized IL33 [14]: 101%; Relative activity, KU812-IL5 production by oxidized IL33 [14]: 162% |
| B5 | 1.43 | 104 pM | 0.000171 s⁻¹ | 1.65e+06 M⁻¹ s⁻¹ | 131 pM | 0.000245 s⁻¹ | 1.87e+06 M⁻¹ s⁻¹ | 0.0755 µg/mL | 94.2% | 142% | 0.0944 µg/mL | 83.3% | 107% | 0.0553 µg/mL | 88.1% | 362% | 0.828 µg/mL | 93.7% | 152% | 0.522 µg/mL | Maximum inhibition rate, KU812-IL5 production by reduced IL33 [12]: 87.2%; Relative activity, KU812-IL5 production by reduced IL33 [12]: 281%; IC50, inhibition of HUVEC-IL6 production promoted by IL33 [13]: 3.69 µg/mL; Maximum inhibition rate, HUVEC-IL6 production by IL33 [13]: 91.8%; Relative activity, HUVEC-IL6 production by IL33 [13]: 73.9%; IC50, inhibition of KU812-IL5 production promoted by oxidized IL33 [14]: 0.0173 µg/mL; Maximum inhibition rate, KU812-IL5 production by oxidized IL33 [14]: 101%; Relative activity, KU812-IL5 production by oxidized IL33 [14]: 127% |
| B6 | 0.86 | 99.7 pM | 0.000176 s⁻¹ | 1.76e+06 M⁻¹ s⁻¹ | 70.6 pM | 0.000152 s⁻¹ | 2.15e+06 M⁻¹ s⁻¹ | 0.0303 µg/mL | 99.1% | 201% | 0.0359 µg/mL | 87.2% | 280% | 0.0438 µg/mL | 88.2% | 458% | 0.3 µg/mL | 94.3% | 380% | 0.389 µg/mL | Maximum inhibition rate, KU812-IL5 production by reduced IL33 [12]: 83.6%; Relative activity, KU812-IL5 production by reduced IL33 [12]: 377%; IC50, inhibition of HUVEC-IL6 production promoted by IL33 [13]: 0.844 µg/mL; Maximum inhibition rate, HUVEC-IL6 production by IL33 [13]: 93%; Relative activity, HUVEC-IL6 production by IL33 [13]: 323%; IC50, inhibition of KU812-IL5 production promoted by oxidized IL33 [14]: 0.0147 µg/mL; Maximum inhibition rate, KU812-IL5 production by oxidized IL33 [14]: 101%; Relative activity, KU812-IL5 production by oxidized IL33 [14]: 150% |
